# Legend:
# HLA-B*14:02 = experiment: IEDB peptide-MHC binding, purified MHC/competitive/fluorescence; ≥ and ≤ were set here for values at or beyond the usual limits of such assays; details: source organism: Human immunodeficiency virus 1
# HLA-B*18:01 [1] = experiment: IEDB peptide-MHC binding, purified MHC/competitive/fluorescence; filed as Kd, often an IC50 or EC50 that approximates it; ≥ and ≤ were set here for values at or beyond the usual limits of such assays; details: source organism: Human immunodeficiency virus 1
# HLA-A*02:03 = experiment: as above; details: source organism: Human immunodeficiency virus 1
# HLA-A*11:01 = experiment: as above; details: source organism: Human immunodeficiency virus 1
# HLA-B*35:01 = experiment: as above
# HLA-B*57:01 [2] = experiment: as above; details: source organism: Human immunodeficiency virus 1
# HLA-A*01:01 [3] = experiment: as above
# HLA-A*26:02 [4] = experiment: as above
# HLA-B*15:01 [5] = experiment: as above
# HLA-A*02:06 = experiment: as above; details: source organism: Human immunodeficiency virus 1
# HLA-B*15:17 [6] = experiment: as above; details: source organism: Human immunodeficiency virus 1
# HLA-A*30:01 = experiment: as above
# HLA-C*14:02 = experiment: IEDB peptide-MHC binding, purified MHC/direct/fluorescence; filed as Kd, often an IC50 or EC50 that approximates it; ≥ and ≤ were set here for values at or beyond the usual limits of such assays; details: source organism: Entamoeba histolytica HM-1:IMSS
# HLA-C*07:02 = experiment: as above
# HLA-A*24:02 = experiment: IEDB peptide-MHC binding, purified MHC/competitive/fluorescence; filed as Kd, often an IC50 or EC50 that approximates it; ≥ and ≤ were set here for values at or beyond the usual limits of such assays; details: source organism: Entamoeba histolytica HM-1:IMSS
# HLA-B*58:01 [7] = experiment: as above; details: source organism: Escherichia coli O139:H28 str. E24377A
# HLA-A*03:01 = experiment: as above; details: source organism: Escherichia coli O139:H28 str. E24377A
# HLA-C*05:01 = experiment: IEDB peptide-MHC binding, purified MHC/direct/fluorescence; filed as Kd, often an IC50 or EC50 that approximates it; ≥ and ≤ were set here for values at or beyond the usual limits of such assays; details: source organism: Influenza A virus (A/duck/Bavaria/1/1977(H1N1))
# HLA-B*07:02 [8] = experiment: IEDB peptide-MHC binding, purified MHC/competitive/fluorescence; filed as Kd, often an IC50 or EC50 that approximates it; ≥ and ≤ were set here for values at or beyond the usual limits of such assays; details: source organism: Influenza A virus (A/duck/Bavaria/1/1977(H1N1))
# HLA-B*07:02 [9] = experiment: IEDB peptide-MHC binding, purified MHC/direct/fluorescence; filed as Kd, often an IC50 or EC50 that approximates it; ≥ and ≤ were set here for values at or beyond the usual limits of such assays
# HLA-B*58:01 [10] = experiment: as above
# HLA-B*46:01 = experiment: as above
# HLA-B*18:01 [11] = experiment: as above
# HLA-B*39:01 = experiment: as above
# HLA-B*48:01 [12] = experiment: as above; details: source organism: Ebola virus - Mayinga, Zaire, 1976
# HLA-B*57:01 [13] = experiment: as above
# HLA-A*01:01 [14] = experiment: as above
# HLA-B*40:01 = experiment: as above
# HLA-A*02:01 = experiment: as above
# HLA-B*15:01 [15] = experiment: as above
# HLA-B*08:03 = experiment: as above; details: source organism: Ravn virus - Ravn, Kenya, 1987
# HLA-B*38:01 = experiment: as above
# HLA-A*26:01 [16] = experiment: IEDB peptide-MHC binding, purified MHC/competitive/fluorescence; filed as Kd, often an IC50 or EC50 that approximates it; ≥ and ≤ were set here for values at or beyond the usual limits of such assays; details: source organism: Zaire ebolavirus
# HLA-A*68:02 [17] = experiment: as above; details: source organism: Zaire ebolavirus
# HLA-A*69:01 = experiment: IEDB peptide-MHC binding, purified MHC/direct/fluorescence; filed as Kd, often an IC50 or EC50 that approximates it; ≥ and ≤ were set here for values at or beyond the usual limits of such assays; details: source organism: Aracatuba virus
# HLA-B*27:05 = experiment: as above; details: source organism: Aracatuba virus
# HLA-A*26:01 [18] = experiment: as above; details: source organism: Variola virus
# HLA-B*08:01 = experiment: as above; details: source organism: Variola virus
# HLA-A*26:02 [19] = experiment: as above; details: source organism: Variola virus
# HLA-B*08:02 = experiment: as above; details: source organism: Variola virus
# HLA-B*15:17 [20] = experiment: as above; details: source organism: Aracatuba virus
# HLA-A*68:02 [21] = experiment: as above; details: source organism: Aracatuba virus
# HLA-B*48:01 [22] = experiment: IEDB peptide-MHC binding, purified MHC/competitive/fluorescence; filed as Kd, often an IC50 or EC50 that approximates it; ≥ and ≤ were set here for values at or beyond the usual limits of such assays; details: source organism: Rabbitpox virus
# [23] = source organism: Human immunodeficiency virus 1
# [24] = source organism: Escherichia coli O139:H28 str. E24377A
# [25] = source organism: Ebola virus - Mayinga, Zaire, 1976
# [26] = source organism: Aracatuba virus
sequence,measurement,setting,value
KHYMLKHL,IC50,HLA-B*14:02,≥ 20000 nM
KSLFNTIAVLY,Kd,HLA-B*18:01 [1],260 nM
same,Kd,HLA-A*02:03,566 nM
same,Kd,HLA-A*11:01,1920 nM
same,Kd,HLA-B*35:01; [23],1010 nM
same,Kd,HLA-B*57:01 [2],190 nM
same,Kd,HLA-A*01:01 [3]; [23],2130 nM
same,Kd,HLA-A*26:02 [4]; [23],1110 nM
same,Kd,HLA-B*15:01 [5]; [23],1200 nM
same,Kd,HLA-A*02:06,206 nM
same,Kd,HLA-B*15:17 [6],21.3 nM
same,Kd,HLA-A*30:01; [23],1350 nM
KYNSHHFTF,Kd,HLA-C*14:02,80 nM
same,Kd,HLA-C*07:02; source organism: Entamoeba histolytica HM-1:IMSS,2 nM
same,Kd,HLA-A*24:02,≤ 0.1 nM
LANWCLLNY,Kd,HLA-B*58:01 [7],104 nM
same,Kd,HLA-A*03:01,≥ 20000 nM
same,Kd,HLA-B*35:01; [24],4.6 nM
same,Kd,HLA-A*01:01 [3]; [24],1670 nM
same,Kd,HLA-B*15:01 [5]; [24],2380 nM
LPFQNIHPI,Kd,HLA-C*05:01,≥ 20000 nM
same,Kd,HLA-C*07:02; source organism: Influenza A virus (A/duck/Bavaria/1/1977(H1N1)),≥ 20000 nM
same,Kd,HLA-B*07:02 [8],104 nM
SRTPSGKRL,Kd,HLA-B*07:02 [9]; [25],≥ 20000 nM
same,Kd,HLA-B*58:01 [10]; [25],≥ 20000 nM
same,Kd,HLA-B*46:01; [25],≥ 20000 nM
same,Kd,HLA-B*18:01 [11]; [25],≥ 20000 nM
same,Kd,HLA-B*39:01; [25],≥ 20000 nM
same,Kd,HLA-B*48:01 [12],≥ 20000 nM
same,Kd,HLA-B*57:01 [13]; [25],≥ 20000 nM
same,Kd,HLA-A*01:01 [14]; [25],≥ 20000 nM
same,Kd,HLA-B*40:01; [25],≥ 20000 nM
same,Kd,HLA-A*02:01; [25],≥ 20000 nM
same,Kd,HLA-B*15:01 [15]; [25],≥ 20000 nM
same,Kd,HLA-B*08:03,≥ 20000 nM
same,Kd,"HLA-B*38:01; source organism: Ravn virus - Ravn, Kenya, 1987",≥ 20000 nM
same,Kd,HLA-A*26:01 [16],2120 nM
same,Kd,HLA-A*26:02 [4]; source organism: Zaire ebolavirus,2800 nM
same,Kd,HLA-A*68:02 [17],3110 nM
YKEPNSIIL,Kd,HLA-B*07:02 [9]; [26],≥ 20000 nM
same,Kd,HLA-B*58:01 [10]; [26],≥ 20000 nM
same,Kd,HLA-B*46:01; [26],≥ 20000 nM
same,Kd,HLA-B*18:01 [11]; [26],≥ 20000 nM
same,Kd,HLA-A*69:01,≥ 20000 nM
same,Kd,HLA-B*27:05,≥ 20000 nM
same,Kd,HLA-B*39:01; [26],30.5 nM
same,Kd,HLA-A*26:01 [18],≥ 20000 nM
same,Kd,HLA-B*08:01,≥ 20000 nM
same,Kd,HLA-B*57:01 [13]; [26],≥ 20000 nM
same,Kd,HLA-A*01:01 [14]; [26],≥ 20000 nM
same,Kd,HLA-B*40:01; [26],≥ 20000 nM
same,Kd,HLA-A*02:01; [26],≥ 20000 nM
same,Kd,HLA-A*26:02 [19],≥ 20000 nM
same,Kd,HLA-B*15:01 [15]; [26],≥ 20000 nM
same,Kd,HLA-B*08:02,≥ 20000 nM
same,Kd,HLA-B*15:17 [20],≥ 20000 nM
same,Kd,HLA-A*68:02 [21],≥ 20000 nM
same,Kd,HLA-B*38:01; source organism: Variola virus,617 nM
same,Kd,HLA-B*48:01 [22],224 nM
same,Kd,HLA-A*30:01; source organism: Rabbitpox virus,≥ 20000 nM

# Reference: the Immune Epitope Database (IEDB)
